The source of these data is article PMC8079274, “Calmodulin influences MAPK signaling by binding KSR1” (The Journal of Biological Chemistry, 2021).

The target of one assay is T1, pure calmodulin (UniProt P0DP23 1-149).
T1 construct: Pure calmodulin from Ocean Biologics; also called purified calmodulin; CaM; source: bought: Ocean Biologics
Put plainly: pull-down; 2 μg pure calmodulin in lysis buffer B with 1 mM Ca^2+ with GST-KSR1 constructs on glutathione-Sepharose beads, 3 h at 4 °C; blot with anti-calmodulin. As to conditions: both partners purified.

Assay [1] addresses T2, calmodulin-Sepharose (calmodulin coupled to Sepharose beads) (UniProt P0DP23 1-149).
T2 construct: Calmodulin coupled to Sepharose; also called CaM; source: bought: GE Healthcare (17-0529-01), calmodulin-Sepharose beads
The assay can be described thus: pull-down; 500 ng purified His-KSR1 with 30 μl calmodulin-Sepharose or GST-Sepharose, lysis buffer B (50 mM Tris-HCl pH 7.4, 150 mM NaCl, 1% Triton-X 100) with 1 mM CaCl2, 3 h at 4 °C; blot with anti-KSR1. As to conditions: both partners purified.

B1: GST-KSR1-M (amino acid residues 319–433) (domain or fragment)
chain: GSPQLVRRDIGLSVTHRFSTKSWLSQVCNVCQKSMIFGVKCKHCRLKCHNKCTKEAPACRITFLPLARLRRTESVPSDINNPVDRAAEPHFGTLPKALTKKEHPPAMNLDSSSNP
notes: Vector pGEX2T-TEV; also called M-fragment; pGEX2T-TEV-KSR1-M; source: E. coli, isolated with glutathione-Sepharose beads
As for B1, in the assay with pure calmodulin, the binding result is “binds”.

B2: His-tagged full-length KSR1 (kinase suppressor of Ras1) (natural protein)
chain: MDRAALRAAAMGEKKEGGGGGAAADGGAGAAVSRALQQCGQLQKLIDISIGSLRGLRTKCSVSNDLTQQEIRTLEAKLVKYICKQQQSKLSVTPSDRTAELNSYPRFSDWLYIFNVRPEVVQEIPQELTLDALLEMDEAKAKEMLRRWGASTEECSRLQQALTCLRKVTGLGGEHKMDSGWSSTDARDSSLGPPMDMLSSLGRAGASTQGPRSISVSALPASDSPVPGLSEGLSDSCIPLHTSGRLTPRALHSFITPPTTPQLRRHAKLKPPRTPPPPSRKVFQLLPSFPTLTRSKSHESQLGNRIDDVTPMKFELPHGSPQLVRRDIGLSVTHRFSTKSWLSQVCNVCQKSMIFGVKCKHCRLKCHNKCTKEAPACRITFLPLARLRRTESVPSDINNPVDRAAEPHFGTLPKALTKKEHPPAMNLDSSSNPSSTTSSTPSSPAPFLTSSNPSSATTPPNPSPGQRDSRFSFPDISACSQAAPLSSTADSTRLDDQPKTDVLGVHEAEAEEPEAGKSEAEDDEEDEVDDLPSSRRPWRGPISRKASQTSVYLQEWDIPFEQVELGEPIGQGRWGRVHRGRWHGEVAIRLLEMDGHNQDHLKLFKKEVMNYRQTRHENVVLFMGACMNPPHLAIITSFCKGRTLHSFVRDPKTSLDINKTRQIAQEIIKGMGYLHAKGIVHKDLKSKNVFYDNGKVVITDFGLFGISGVVREERRENQLKLSHDWLCYLAPEIVREMIPGRDEDQLPFSKAADVYAFGTVWYELQARDWPFKHQPAEALIWQIGSGEGVRRVLASVSLGKEVGEILSACWAFDLQERPSFSLLMDMLERLPKLNRRLSHPGHFWKSADINSSKVMPRFERFGLGTLESGNPKM
notes: Kinase suppressor of Ras1 (KSR1), full length; Plasmid pTrace-His-KSR1 was a gift (Piero Crespo); the construct is not described further; also called His-KSR1; purified KSR1; source: 90% pure
For the molecule B2, in assay [1], the binding result is given as “binds”.
